According to article PMC4631838, “Molecular architecture of the yeast Mediator complex” (eLife, 2015):

Tests used:
[1] = target: T1, Med5 (Nut1), Mediator Tail module subunit (S. cerevisiae, UniProt P53114 1-1132); experiment: cross-linking; BS3 (unlabeled, or 50:50 with 2H12-labeled BS3) on the purified native holoenzyme; 150 mM NaPO4, 150 mM KOAc, pH 7.5, 5% glycerol, 2 mM DTT; procedure A 2.7 mM reagent 120 min on ice; trypsin digest, LC-MS/MS, Protein Prospector; conditions: both partners purified
T1 construct: Med5 (Nut1), S. cerevisiae, endogenous; source: endogenous, S. cerevisiae CB010 double-tagged strain; within the purified native holoenzyme
T1 sequence (looked up): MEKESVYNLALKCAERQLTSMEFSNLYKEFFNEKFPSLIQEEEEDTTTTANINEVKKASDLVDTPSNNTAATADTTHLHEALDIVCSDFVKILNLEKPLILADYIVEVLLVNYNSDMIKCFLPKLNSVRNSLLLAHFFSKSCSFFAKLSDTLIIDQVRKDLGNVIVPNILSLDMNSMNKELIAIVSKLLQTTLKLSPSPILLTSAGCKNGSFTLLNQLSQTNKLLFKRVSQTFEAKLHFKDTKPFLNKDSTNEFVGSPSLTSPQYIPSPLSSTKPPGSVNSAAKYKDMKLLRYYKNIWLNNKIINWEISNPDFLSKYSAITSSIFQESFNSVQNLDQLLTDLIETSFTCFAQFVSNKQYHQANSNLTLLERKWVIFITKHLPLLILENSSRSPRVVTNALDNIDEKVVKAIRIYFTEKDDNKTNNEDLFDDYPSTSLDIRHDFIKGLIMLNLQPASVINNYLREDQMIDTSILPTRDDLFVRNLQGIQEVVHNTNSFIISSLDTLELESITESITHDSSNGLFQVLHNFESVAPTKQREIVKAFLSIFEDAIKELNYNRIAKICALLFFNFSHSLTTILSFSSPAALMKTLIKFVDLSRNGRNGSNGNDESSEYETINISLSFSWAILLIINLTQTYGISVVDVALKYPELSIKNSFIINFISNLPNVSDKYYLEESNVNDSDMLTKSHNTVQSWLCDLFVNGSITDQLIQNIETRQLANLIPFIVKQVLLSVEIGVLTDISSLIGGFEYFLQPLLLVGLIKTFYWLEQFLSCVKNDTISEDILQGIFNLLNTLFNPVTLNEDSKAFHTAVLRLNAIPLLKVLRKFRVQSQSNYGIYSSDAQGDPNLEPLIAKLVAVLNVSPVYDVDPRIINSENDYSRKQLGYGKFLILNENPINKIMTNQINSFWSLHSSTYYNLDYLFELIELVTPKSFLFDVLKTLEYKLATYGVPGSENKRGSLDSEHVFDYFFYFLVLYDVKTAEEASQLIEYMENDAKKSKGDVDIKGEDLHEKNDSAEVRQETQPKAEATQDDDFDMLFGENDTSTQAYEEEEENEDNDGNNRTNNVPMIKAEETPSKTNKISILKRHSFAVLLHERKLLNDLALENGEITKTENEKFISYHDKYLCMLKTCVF

[2] = target: T2, Med15 (Gal11), Mediator Tail module subunit (S. cerevisiae, UniProt P19659 1-1081); experiment: as above; conditions: both partners purified
T2 construct: Med15 (Gal11), S. cerevisiae, endogenous; source: endogenous, S. cerevisiae CB010 double-tagged strain; within the purified native holoenzyme
T2 sequence (looked up): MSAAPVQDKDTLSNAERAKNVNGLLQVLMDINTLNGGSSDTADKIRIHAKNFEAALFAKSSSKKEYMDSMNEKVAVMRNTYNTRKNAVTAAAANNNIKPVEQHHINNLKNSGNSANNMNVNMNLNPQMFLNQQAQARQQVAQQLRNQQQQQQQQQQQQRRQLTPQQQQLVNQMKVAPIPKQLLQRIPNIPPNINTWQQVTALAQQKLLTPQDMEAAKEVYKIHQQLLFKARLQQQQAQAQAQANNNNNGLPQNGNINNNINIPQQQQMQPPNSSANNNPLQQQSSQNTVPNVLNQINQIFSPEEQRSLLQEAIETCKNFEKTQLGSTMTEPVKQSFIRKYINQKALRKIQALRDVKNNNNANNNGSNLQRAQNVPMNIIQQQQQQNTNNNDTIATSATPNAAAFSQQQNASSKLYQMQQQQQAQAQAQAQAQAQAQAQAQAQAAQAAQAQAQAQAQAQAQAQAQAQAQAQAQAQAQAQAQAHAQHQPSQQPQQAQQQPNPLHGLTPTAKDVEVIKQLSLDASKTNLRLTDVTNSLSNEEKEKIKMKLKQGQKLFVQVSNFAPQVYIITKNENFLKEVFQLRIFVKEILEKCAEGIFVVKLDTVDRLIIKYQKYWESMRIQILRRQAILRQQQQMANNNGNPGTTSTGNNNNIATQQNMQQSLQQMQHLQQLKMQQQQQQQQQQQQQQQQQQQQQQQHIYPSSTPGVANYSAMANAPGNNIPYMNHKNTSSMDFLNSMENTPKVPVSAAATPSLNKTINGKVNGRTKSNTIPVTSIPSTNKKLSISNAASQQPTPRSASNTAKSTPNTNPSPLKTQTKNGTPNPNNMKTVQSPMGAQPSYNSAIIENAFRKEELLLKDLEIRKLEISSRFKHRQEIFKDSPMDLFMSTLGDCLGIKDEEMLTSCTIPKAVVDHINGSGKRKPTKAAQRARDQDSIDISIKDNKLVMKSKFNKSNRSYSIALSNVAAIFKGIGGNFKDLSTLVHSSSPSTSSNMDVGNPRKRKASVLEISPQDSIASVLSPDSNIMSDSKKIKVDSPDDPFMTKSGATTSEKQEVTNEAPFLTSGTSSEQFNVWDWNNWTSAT

binding result [1]: binds | binding result [2]: binds
B1: Med16 (Sin4), Mediator Tail module subunit (natural protein, S. cerevisiae, UniProt P32259 1-974, looked up)
chain: MMLGEHLMSWSKTGIIAYSDSQSSNANICLTFLESINGINWRFHTPQKYVLHPQLHEVQYQESSSTLSTHSTTTSVNGSTTAGVGSTPNFGGNSNKSPPQFFYNISSIHWNNWFSLPGDMLAVCDELGNMTMLITGQRPDRATTYEKLTMVFQDNVYKIYNHVMPLKPVDKLKPMNIERKQTRKEYNTSILEFRWLTSSKSVIVSQFCAFDSSSNTYRSRAQQVPPYGVYHPPFIKYACLAIRKNGQIDFWYQFSNSKDHKKITLQLLDTSNQRFKDLQWLEFARITPMNDDQCMLITTYSKLSKNISFYKLHVNWNLNATKPNVLNDPSLKIQFILSTTLDPTDDEGHVLKLENLHVVSKSSIEKDPSPEILVLYNVCDTSKSLVKRYRLAPTQLSAEYLVILKPDLNIDRNNSTNQIFQSRRYNLRRHSDIVLDKKVTLITSEMFDAFVSFYFEDGTIESYNQNDWKLETERLISQSQLGKFKNIIASPLSAGFNYGKLPLPPSVEWMKVSPSMCGVIVKQYNKKWPQFYAAVQKNYADPEKDSINATALAFGYVKSLHKQISAEDLTIAAKTHILRISFLDRKRAKEFITTLLKSLYSFFNISPDAPKEIMDKIITSRPLQKIMLLQLELGSCFSQENIEEMARVILYLKNVLFAFNGVARNFHFAIEQISNNSNQQQNPKLFQTIFSKQDLIHSLIPVAKWFVKFITYLTQEILILINDPTNKEYTLVHGIFGAKMSRTLILSILNEIKKVTQIVAKFPETSYPILNESSTFLKLVLSESPVDFEKFETFLVDVNNKFIALCEQQPSQEREFSLLVKAEIPPEYAKVGDFLLQYANNAVISHANAAAVYFADTSGLKISNSEFFNPEIFHLLQPLEEGLIIDTDKLPIKNRTSKSFSKLLYDDVTCDKLSVSEISDGKLKRCSRCGSVTRAGNIISSDKTIVPTSIQTKRWPTMYTRLCICSGMLFEMDG
notes: Med16 (Sin4), S. cerevisiae, endogenous; source: endogenous, S. cerevisiae CB010 double-tagged strain; within the purified native holoenzyme
